According to patent publication US6333189A, “Method of making an electrotransport device” (ALZA Corporation, priority 1997, dated 2001):
Ends that are not written are not given here.

Assays:
[1] = tested on: PTH receptor (rat osteosarcoma cell line UMR106); assay: adenylate cyclase stimulation / cAMP in UMR106 cells (PTH receptor activation); format: cell-based; conditions: for EC50: cAMP, 5 minutes, 1 mM IBMX, read-out: EC-50 (effective concentration)
Protocol: The peptide was then desalted and partially purified on a SepPak column. Individual peaks were isolated and analyzed by electrospray mass spectrometry to determine the composition.
PTH concentrations were determined by OD280 using an extinction coefficient of 6600 for the recombinant peptide and 5500 for the synthetic peptide. […] Activation of the PTH receptor leads to an intracellular rise in cAMP concentration.
The UMR106 cells were seeded at about 2.5×10^5 per well in a 48 well dish and allowed to grow to confluence. Assays were performed on cells 3-5 days postconfluence. The media (Dulbecco's modified Eagle's medium, DMEM, with fetal calf serum) was removed, and 1 mL of fresh media was applied. PTH (recombinant or synthetic) at various concentrations and 3-isobutyl-1-methyl xanthine (IBMX) at 1 mM final concentration were then added to each well of the plate, which was then incubated for 5 minutes at room temperature. The media was then removed and the cells quickly washed with ice cold PBS. The cells were then extracted twice with 1 mL of absolute ethanol. The two extractions were combined and the ethanol removed by evaporation. The extract was then redissolved in 1 mL of scintillation proximity buffer (SPA buffer) (Amersham, Arlington Heights, Ill.). The cAMP concentration was determined by assay using a scintillation proximity assay (SPA) kit available from Amersham.

[2] = Circular dichroism in varying trifluoroethanol concentrations, PTH analogs; format: physicochemical; set-up: [θ]222 (mean residue ellipticity): unit not given here; conditions: for [θ]222 (mean residue ellipticity): pH 6.5 10 mM cacodylate, 20° C; for helicity: 30% (v/v) TFE
Protocol: The trifluoroethanol (TFE) circular dichroism studies were done using an AVIV Associates, Inc. Model 62DS Circular Dichroism Spectrometer. Protein concentrations were determined from absorbance readings using calculated extinction coefficients for the analogs in 10 mM ionic buffer. TFE titrations were done from 0 to 50% TFE, scanning from 250 to 200 nm at 20° C. for each TFE sample.

[3] = Stability when incubated with stripped stratum corneum; format: in vitro ADME, human
[4] = In vitro electrotransport flux of the PTH analogs; conditions: retro-inverso versions, 1 mM, pH 5.0, 0.1 mA/cm^2, 32° C, BSA/Tween 20 receptor
[5] = in vitro skin permeation; cited from earlier work
PTH receptor [6] = biological target: T1, PTH receptor (rat, UniProt P25961)
Target sequence in this assay (P25961 27-591): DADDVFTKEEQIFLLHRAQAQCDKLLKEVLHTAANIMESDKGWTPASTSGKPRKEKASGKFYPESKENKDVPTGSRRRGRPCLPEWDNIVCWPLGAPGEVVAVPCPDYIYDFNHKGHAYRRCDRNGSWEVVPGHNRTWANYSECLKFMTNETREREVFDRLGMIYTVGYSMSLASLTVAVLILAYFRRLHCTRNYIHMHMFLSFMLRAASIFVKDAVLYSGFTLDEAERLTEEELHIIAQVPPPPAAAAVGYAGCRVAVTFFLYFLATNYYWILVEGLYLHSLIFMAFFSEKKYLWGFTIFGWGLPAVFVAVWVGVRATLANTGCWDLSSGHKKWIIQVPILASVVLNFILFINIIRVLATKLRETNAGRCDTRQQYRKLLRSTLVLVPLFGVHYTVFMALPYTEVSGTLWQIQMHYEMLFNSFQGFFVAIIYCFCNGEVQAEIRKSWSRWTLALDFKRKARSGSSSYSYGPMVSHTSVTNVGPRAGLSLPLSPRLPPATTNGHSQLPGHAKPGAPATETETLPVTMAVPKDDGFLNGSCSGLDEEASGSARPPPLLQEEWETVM

[7] = in vitro and in vivo studies; cited from earlier work
PTH receptor (rat) = PTH receptor (rat) (UniProt P25961)
PTH receptor [8] = biological target: T1, PTH receptor; assay: Kd reported in the PTH analog activity assay on UMR106 cells; the method used for the Kd is not described

Sequence of PTH receptor (rat) (P25961 27-591): as above

Molecule: PTH analog 1: FIG. 1B (SEQ ID NO:7): Met8Leu, Leu15Arg, Met18Leu, Glu19Arg, Glu22Arg, Gln29Lys, Phe34Tyr, homoserine lactone at the C-terminus
- EC50 ([1]; UMR106 cells): 0.9 nM
- [θ]222 (mean residue ellipticity) ([2]; 0% TFE): -4205
- [θ]222 (mean residue ellipticity) ([2]; 10% TFE): -9333
- [θ]222 (mean residue ellipticity) ([2]; 20% TFE): -23098
- helicity [2]: about 80%
- [θ]222 (mean residue ellipticity) ([2]; 30% TFE): -26334
- [θ]222 (mean residue ellipticity) ([2]; 40% TFE): -27580
- [θ]222 (mean residue ellipticity) ([2]; 50% TFE): -27705
- stability when incubated with stripped stratum corneum [3]: not stable
- median mass flux (95% confidence interval) ([4]; 95% CI: analog 1 0.1 to 0.7, analog 2 2.1 to 4.2): 0.3 μg cm^-2 h^-1
- average mass flux ± sd ([4]; sd: analog 1 ±2.3, analog 2 ±3.7): 1.4 μg cm^-2 h^-1

Molecule: NC(=O)[C@@H]1CCCN1C(=O)[C@H](Cc1cnc[nH]1)NC(=O)[C@@H]1CCC(=O)N1 [thyrotropin releasing hormone]
- electrotransport flux compared with passive diffusional flux [5]: higher than passive diffusional flux

Molecule: Synthetic PTH having the wild-type sequence (ligand)
- stimulation of adenylate cyclase (intracellular cAMP, scintillation proximity assay) in UMR106 cells (PTH receptor [6]): 4.4 nM

Molecule: insulin: insulin, cited electrotransport study
- transdermal delivery via electrotransport [7]: possible

Molecule: NC(=O)CC[C@@H]1NC(=O)[C@H](Cc2ccccc2)NC(=O)[C@H](Cc2ccc(O)cc2)NC(=O)[C@@H](N)CSSC[C@@H](C(=O)N2CCC[C@H]2C(=O)N[C@@H](CCCN=C(N)N)C(=O)NCC(N)=O)NC(=O)[C@H](CC(N)=O)NC1=O [vasopressin]
- transdermal delivery via electrotransport [7]: possible

Molecule: Wild-type PTH: wild-type, parent PTH polypeptide, FIG. 1A (SEQ ID NO:6), 34 amino acid residues [reference compound]
- EC50 ([1]; UMR106 cells): 4.4 nM

Molecule: PTH analog 3: amino acid sequence of FIG. 1D (SEQ ID NO:9); recombinantly synthesized (SVSEIQLMHNLGKHLNSMERPEWLRKKPQDVHNF)
- activity (ability to stimulate adenylate cyclase) ([1]; UMR106 cells): no measurable activity
- [θ]222 (mean residue ellipticity) ([2]; 0% TFE): -3867
- [θ]222 (mean residue ellipticity) ([2]; 10% TFE): -6479
- [θ]222 (mean residue ellipticity) ([2]; 20% TFE): -12329
- helicity [2]: about 15%
- [θ]222 (mean residue ellipticity) ([2]; 30% TFE): -15161
- [θ]222 (mean residue ellipticity) ([2]; 40% TFE): -15191
- [θ]222 (mean residue ellipticity) ([2]; 50% TFE): -15395
- helix in the absence of the helix-inducing TFE (in words) ([2]; no TFE): essentially devoid of helix

B1: RPTH: recombinant PTH (RPTH), HPLC purified or crude Sep-Pak purified (peptide, UniProt P01270 32-115, looked up)
Parathyroid hormone: SVSEIQLMHNLGKHLNSMERVEWLRKKLQDVHNFVALGAPLAPRDAGSQRPRKKEDNVLVESHEKSLGEADKADVNVLTKAKSQ
- adenylate cyclase stimulatory ability, crude Sep-Pak purified vs HPLC purified ([1]; crude Sep-Pak purified sample compared with HPLC purified RPTH): no significant difference in adenylate cyclase stimulatory ability

Molecule: SVSEIQLLHNLGKHRNSLRRVRWLRKKLKDVHNY-{HSL} (ligand) [PTH analog 1 (1-35)]
- stimulation of adenylate cyclase (intracellular cAMP, scintillation proximity assay) in UMR106 cells (PTH receptor (rat)): 0.9 nM
- Kd (PTH receptor [8]): 1.5 nM
